B1: CCDC6-RET lacking the c-terminal segment of RET (CCDC6 1-101 fused to RET aa 713-1013) (enzyme, human, UniProt Q16204 1-101, looked up)
chain: MADSASESDTDGAGGNSSSSAAMQSSCSSTSGGGGGGGGGGGGGKSGGIVISPFRLEELTNRLASLQQENKVLKIELETYKLKCKALQEENRDLRKASVTIEDPKWEFPRKNLVLGKTLGEGEFGKVVKATAFHLKGRAGYTTVAVKMLKENASPSELRDLLSEFNVLKQVNHPHVIKLYGACSQDGPLLLIVEYAKYGSLRGFLRESRKVGPGYLGSGGSRNSSSLDHPDERALTMGDLISFAWQISQGMQYLAEMKLVHRDLAARNILVAEGRKMKISDFGLSRDVYEEDSYVKRSQGRIPVKWMAIESLFDHIYTTQSDVWSFGVLLWEIVTLGGNPYPGIPPERLFNLLKTGHRMERPDNCSEEMYRLMLQCWKQEPDKRPVFADISKDLEKMMVKRR
B2: CCDC6-RET fusion product (CCDC6 residues 1-101 fused to RET residues 713-1072), wild type, apo (un-phosphorylated) state (enzyme, human, UniProt Q16204 1-101, looked up)
chain: MADSASESDTDGAGGNSSSSAAMQSSCSSTSGGGGGGGGGGGGGKSGGIVISPFRLEELTNRLASLQQENKVLKIELETYKLKCKALQEENRDLRKASVTIEDPKWEFPRKNLVLGKTLGEGEFGKVVKATAFHLKGRAGYTTVAVKMLKENASPSELRDLLSEFNVLKQVNHPHVIKLYGACSQDGPLLLIVEYAKYGSLRGFLRESRKVGPGYLGSGGSRNSSSLDHPDERALTMGDLISFAWQISQGMQYLAEMKLVHRDLAARNILVAEGRKMKISDFGLSRDVYEEDSYVKRSQGRIPVKWMAIESLFDHIYTTQSDVWSFGVLLWEIVTLGGNPYPGIPPERLFNLLKTGHRMERPDNCSEEMYRLMLQCWKQEPDKRPVFADISKDLEKMMVKRRDYLDLAASTPSDSLIYDDGLSEEETPLVDCNNAPLPRALPSTWIENKLYGRISHAFTRF
modifications: activation loop Tyr 900 and c-terminal Ser 1034 showed high levels of phosphorylation in the basal state

What was measured:
SAXS = biological target: the molecule itself; test: SAXS
mass photometry = biological target: the molecule itself; test: mass photometry

| Protein | binding result (SAXS) | stoichiometry N (mass photometry) |
| --- | --- | --- |
| B1 | binds |  |
| B2 |  | 2 |

Reference: publication doi:10.1101/2025.01.14.632894 (bioRxiv, 2025)
